Article PMC7265355 (2020)

Tests used:
[1] = molecular target: T1, ACE2-Ig (extracellular domain of human ACE2 linked to the Fc domain of human IgG1) (human, UniProt Q9BYF1 18-740); assay: SPR
[2] = molecular target: T1, ACE2-Ig (extracellular domain of human …); assay: SPR; remark: listed apart in the source

T1 sequence (Q9BYF1 18-740): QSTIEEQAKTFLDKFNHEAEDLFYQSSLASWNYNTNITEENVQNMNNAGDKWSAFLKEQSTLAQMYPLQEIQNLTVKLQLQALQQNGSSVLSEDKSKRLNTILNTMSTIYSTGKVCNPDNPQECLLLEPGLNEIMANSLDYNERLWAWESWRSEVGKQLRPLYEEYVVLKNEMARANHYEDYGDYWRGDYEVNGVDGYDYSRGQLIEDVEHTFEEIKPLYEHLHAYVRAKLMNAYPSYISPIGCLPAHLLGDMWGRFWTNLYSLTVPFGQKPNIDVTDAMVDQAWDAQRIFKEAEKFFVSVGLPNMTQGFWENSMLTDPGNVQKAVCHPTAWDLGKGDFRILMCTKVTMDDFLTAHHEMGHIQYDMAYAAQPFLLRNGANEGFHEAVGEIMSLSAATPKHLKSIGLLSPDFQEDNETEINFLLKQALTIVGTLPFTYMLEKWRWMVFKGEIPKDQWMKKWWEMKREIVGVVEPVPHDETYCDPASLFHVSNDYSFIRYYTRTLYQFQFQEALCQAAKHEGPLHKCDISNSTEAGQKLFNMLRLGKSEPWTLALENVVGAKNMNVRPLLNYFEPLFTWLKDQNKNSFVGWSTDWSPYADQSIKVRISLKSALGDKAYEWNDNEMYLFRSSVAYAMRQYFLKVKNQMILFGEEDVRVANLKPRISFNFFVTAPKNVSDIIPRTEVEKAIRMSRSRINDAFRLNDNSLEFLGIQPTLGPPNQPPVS

B1: SARS-CoV S protein (natural protein)
chain: not shown
- koff [1]: 0.00294 s⁻¹
- Kd [2]: 177 nM
